Measurements: patent publication EP4335870A1 (NantCell, Inc., dated 2024)
Substitutions are numbered along the chain they refer to.

B1: N-612-017 (antibody, V domains shown)
VH: EVQLVESGGGLVQPGGSLRLSCAASGFTFSSYAMHWVRQAPGKGLEWVSAIWGSGSNTYYADSVKGRFTISRDNSKNTLYLQMNSLRAEDTAVYYCARGRDLAAFTKTAFDVWGQGTLVTVSS
VL: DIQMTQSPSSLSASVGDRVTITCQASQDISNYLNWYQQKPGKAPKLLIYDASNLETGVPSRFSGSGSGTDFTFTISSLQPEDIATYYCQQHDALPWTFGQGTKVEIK
B2: N-612-056 (antibody, V domains shown)
VH: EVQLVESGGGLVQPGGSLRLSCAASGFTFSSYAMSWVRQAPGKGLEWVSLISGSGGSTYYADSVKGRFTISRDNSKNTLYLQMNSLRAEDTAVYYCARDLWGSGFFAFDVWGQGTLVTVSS
VL: DIQMTQSPSSLSASVGDRVTITCQASQDISNYLNWYQQKPGKAPKLLIYDASNLETGVPSRFSGSGSGTDFTFTISSLQPEDIATYYCQQDAGTPLTFGQGTKVEIK
B3: N-612-017-5B05 SV (antibody, V domains shown)
VH: B1 VH with A33V, R72V, R100E, D101E
VL: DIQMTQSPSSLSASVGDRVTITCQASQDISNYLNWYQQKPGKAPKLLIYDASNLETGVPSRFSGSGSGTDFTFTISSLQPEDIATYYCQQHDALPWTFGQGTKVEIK
B4: N-612-056-21 (antibody, V domains shown)
VH: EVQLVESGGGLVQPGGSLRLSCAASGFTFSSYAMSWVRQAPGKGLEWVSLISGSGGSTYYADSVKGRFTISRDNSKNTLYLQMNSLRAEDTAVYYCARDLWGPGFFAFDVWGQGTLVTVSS
VL: B2 VL
B5: N-612-004 (antibody, V domains shown)
VH: EVQLVESGGGLVQPGGSLRLSCAASGFTFSSYYMHWVRQAPGKGLEWVSAISGSGGYTYYADSVKGRFTISRDNSKNTLYLQMNSLRAEDTAVYYCARDRDHAYDWGFDVWGQGTLVTVSS
VL: B2 VL with D91W, G93D, T94W
B6: N-612-007 (antibody, V domains shown)
VH: EVQLVESGGGLVQPGGSLRLSCAASGFTFSNYAMHWVRQAPGKGLEWVSAISGNGGSTGYADSVKGRFTISRDNSKNTLYLQMNSLRAEDTAVYYCARDRWYVKNAFDVWGQGTLVTVSS
VL: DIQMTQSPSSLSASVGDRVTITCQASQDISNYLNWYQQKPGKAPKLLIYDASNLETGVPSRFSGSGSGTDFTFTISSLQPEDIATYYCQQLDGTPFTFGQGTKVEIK
B7: N-612-014 (antibody, V domains shown)
VH: EVQLVESGGGLVQPGGSLRLSCAASGFTFSSYAMTWVRQAPGKGLEWVSYISGSGGGTYYADSVKGRFTISRDNSKNTLYLQMNSLRAEDTAVYYCARDRWASGWLAFDVWGQGTLVTVSS
VL: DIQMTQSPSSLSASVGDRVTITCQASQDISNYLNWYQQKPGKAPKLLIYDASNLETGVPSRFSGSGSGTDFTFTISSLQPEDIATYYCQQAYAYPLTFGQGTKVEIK

target: SARS-CoV-2 Spike receptor binding domain (RBD), wildtype (SARS-CoV-2, UniProt P0DTC2 319-541); experiment: not given

First: B1
Second: B2
The Kd of the first is 1.8-fold higher: 5.29 nM for the first, 2.98 nM for the second. The second binds more tightly here.

Going from B3 to B4, the Kd falls from 6.62 nM to 0.41 nM (16-fold).

target: SARS-CoV-2 Spike protein on live SARS-CoV-2 (SARS-CoV-2, UniProt P0DTC2 14-1273); experiment: cell-based or functional assay

First: B5
Second: B6
The “live SARS-CoV-2 neutralization IC50” value of the first is 4.3-fold higher: 0.194 µg/mL for the first, 0.0452 µg/mL for the second.

First: B1
Second: B2
The “live SARS-CoV-2 neutralization IC50” value of the first is 11-fold lower: 0.0756 µg/mL for the first, 0.855 µg/mL for the second.

For B7, the “live SARS-CoV-2 neutralization IC50” value was 0.00791 µg/mL.
